Measurements reported in the supplement of paper PMC7877785.
± gives the uncertainty stated by the source.

Test: self-splicing fitness, log relative to wild type (ln ratio); higher = more splicing; Tetrahymena group I intron in knt gene, E. coli kanamycin selection, DiMSum; sequences stand for … in CUCUCU…GGAGGGAAAAGUUAUCAGGCAUGCACCUGGUAGCUAGUCUUUAAACCAAUAGAUUGCAUCGGUUUAAAAGGCAAGACCGUCAAAUUGCGGGAAAGGGGUCAACAGCCGUUCAGUACCAAGUCUCAGGGGAAACUUUGAGAUGGCCUUGCAAAGGGUAUGGUAAUAAGCUGACGGACAUGGUCCUAACCACGCAGCCAAGUCCUAAGUCAACAGAUCUUCUGUUGAUAUGGAUGCAGUUCACAGACUAAAUGUCGGUCGGGGAAGAUGUAUUCUUCUCAUAAGAUAUAGUCGGACCUCUCCUUAAUGGGAGCUAGCGGAUGAAGUGAUGCAACACUGGAGCCGCUGGGAACUAAUUUGUAUGCGAAAGUAUAUUGAUUAGUUUUGGAGUACUCGUGGUCG
Outline: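 A randomised library covering all eight P1ex-region intron nucleotides was built with the intron in the knt kanamycin-resistance gene on pET-22b(+) and held in E. coli BL21(DE3). Cells were grown overnight at 37°C or 30°C on LB agar, with or without 25 μg/mL kanamycin, plus 100 μg/mL carbenicillin, 50 μM IPTG and 0.2% rhamnose, and pooled colonies were amplicon-sequenced on an Illumina HiSeq 2500. DiMSum fitness is the error-weighted combination of wild-type-normalised replicate fold changes, kanamycin versus none.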

Sequence | self-splicing fitness (ln) (30 °C) | self-splicing fitness (ln) (37 °C)
GCUUAGCAAUAUUACGUCUG | -2.33 ± 0.16 | -1 ± 0.15
GCUUAGCAAUAUUACGUCUU | -1.1 ± 0.1 | -0.549 ± 0.12
GCUUAGCAAUAUUACGUUAU | -1.38 ± 0.093 | -0.881 ± 0.12
GCUUAGCAAUAUUACGUUGA | -2.65 ± 0.2 | -1.15 ± 0.16
GCUUAGCAAUAUUACGUUGG | -1.59 ± 0.1 | -0.814 ± 0.14
GGAAAGCAAUAUUACGAAGU | -2.79 ± 0.16 | -1.97 ± 0.18
GGAAAGCAAUAUUACGACAA | -1.71 ± 0.12 | -1 ± 0.14
GGAAAGCAAUAUUACGAGUU | -1.86 ± 0.1 | -1.08 ± 0.12
GGAAAGCAAUAUUACGCCUC | -1.14 ± 0.16 | -1.03 ± 0.19
GGAAAGCAAUAUUACGCCUU | -1.07 ± 0.29 | -1.29 ± 0.38
GGAAAGCAAUAUUACGCUAG | -2.03 ± 0.22 | -0.857 ± 0.29
GGAAAGCAAUAUUACGGCUU | -1.08 ± 0.091 | -0.393 ± 0.14
GGAAAGCAAUAUUACGGGAA | -2.5 ± 0.36 | -2.92 ± 0.26
GGAAAGCAAUAUUACGGGGG | -3.94 ± 0.26 | -1.45 ± 0.21
GGAAAGCAAUAUUACGGUCG | 0.127 ± 0.092 | -0.296 ± 0.12
GGAAAGCAAUAUUACGGUGC | -3.36 ± 0.27 | -1.62 ± 0.23
GGAAAGCAAUAUUACGUACG | -0.792 ± 0.097 | -0.786 ± 0.11
GGAAAGCAAUAUUACGUCCC | – | -2.61 ± 0.33
GGAAAGCAAUAUUACGUGAA | -1.96 ± 0.11 | -1.45 ± 0.16
GGAAAGCAAUAUUACGUGAG | -1.22 ± 0.047 | -0.225 ± 0.069
GGAAAGCAAUAUUACGUGGA | -3.49 ± 0.28 | -1.96 ± 0.23
GGACAGCAAUAUUACGAAAC | -0.691 ± 0.12 | -0.624 ± 0.2

Sequence | self-splicing fitness (ln) (30 °C) | self-splicing fitness (ln) (37 °C)
GGACAGCAAUAUUACGACCA | -1.46 ± 0.13 | -0.645 ± 0.16
GGACAGCAAUAUUACGACCU | -0.544 ± 0.077 | -0.13 ± 0.087
GGACAGCAAUAUUACGAGGG | -3.16 ± 0.14 | -2.28 ± 0.15
GGACAGCAAUAUUACGCAAC | -1.68 ± 0.15 | -0.445 ± 0.18
GGACAGCAAUAUUACGCAUA | -0.761 ± 0.094 | 0.314 ± 0.12
GGACAGCAAUAUUACGCCAG | -2.17 ± 0.22 | -2.07 ± 0.35
GGACAGCAAUAUUACGCUAU | -1.42 ± 0.098 | -0.49 ± 0.11
GGACAGCAAUAUUACGCUGA | -2.21 ± 0.16 | -1.51 ± 0.15
GGACAGCAAUAUUACGGGAA | -2.7 ± 0.1 | -1.04 ± 0.083
GGACAGCAAUAUUACGGGAG | -2.73 ± 0.13 | -1.28 ± 0.15
GGACAGCAAUAUUACGGGCC | – | -1.52 ± 0.29
GGACAGCAAUAUUACGGUAA | -1.34 ± 0.082 | -0.697 ± 0.075
GGACAGCAAUAUUACGGUCA | -0.242 ± 0.046 | 0.817 ± 0.07
GGACAGCAAUAUUACGUACA | -1.06 ± 0.096 | 0.0922 ± 0.12
GGACAGCAAUAUUACGUCAU | -1.17 ± 0.095 | -0.489 ± 0.1
GGACAGCAAUAUUACGUCUG | -1.1 ± 0.057 | -0.31 ± 0.072
GGACAGCAAUAUUACGUGGA | -1.08 ± 0.076 | -1.29 ± 0.075
GGACAGCAAUAUUACGUGGC | -3.02 ± 0.26 | -0.384 ± 0.16
GGACAGCAAUAUUACGUGUC | -3.52 ± 0.28 | -2.68 ± 0.23
GGACAGCAAUAUUACGUUAA | -0.204 ± 0.07 | 0.00356 ± 0.08
GGAGAGCAAUAUUACGAAAA | – | -0.772 ± 0.31
